Legend:
[1] = target: T1, GH1 β-glucosidase from Spodoptera frugiperda (Sfβgly), wild-type (Spodoptera frugiperda); assay: SEC-MALS; 90 μM Sfβgly in 100 mM sodium phosphate buffer pH 6 (P100) at 5 °C; two Superdex 200 columns in tandem; conditions: both partners purified
[2] = target: T1, GH1 β-glucosidase from Spodoptera …; assay: SEC; dimer to monomers; 5 mM phosphate buffer pH 6 (P5), 5 °C; KD is the slope of [M]^2 versus [D] from peak areas; conditions: both partners purified
[3] = target: T1, GH1 β-glucosidase from Spodoptera …; assay: SEC; dimer to monomers; 25 mM phosphate buffer pH 6 (P25), 5 °C; KD is the slope of [M]^2 versus [D] from peak areas; conditions: both partners purified
[4] = target: T1, GH1 β-glucosidase from Spodoptera …; assay: SEC; dimer to monomers; 50 mM phosphate buffer pH 6 (P50), 5 °C; KD is the slope of [M]^2 versus [D] from peak areas; conditions: both partners purified
[5] = target: T1, GH1 β-glucosidase from Spodoptera …; assay: SEC; dimer to monomers; 75 mM phosphate buffer pH 6 (P75), 5 °C; KD is the slope of [M]^2 versus [D] from peak areas; conditions: both partners purified
[6] = target: T1, GH1 β-glucosidase from Spodoptera …; assay: SEC; dimer to monomers; 100 mM phosphate buffer pH 6 (P100), 5 °C; two Superdex 200 HR10/300 GL columns in tandem; KD is the slope of [M]^2 versus [D] from peak areas at several protein concentrations; conditions: both partners purified
[7] = target: T1, GH1 β-glucosidase from Spodoptera …; assay: as above; conditions: both partners purified; remark: listed apart in the source
[8] = target: the molecule itself; assay: as above

B1: GH1 β-glucosidase from Spodoptera frugiperda (Sfβgly), wild-type (enzyme)
chain: QQRRFPDDFLFGTATASYQIEGAWDEDGKGENIWDYMVHNTPEVIRDLSNGDIAADSYHNYKRDVEMMRELGLDAYRFSLSWARILPTGMANEVNPAGIAFYNNYIDEMLKYNITPLITLYHWDLPQKLQELGGFANPLISDWFEDYARVVFENFGDRVKMFITFNEPREICFEGYGSATKAPILNATAMGAYLCAKNLVTAHAKAYYLYDREFRPVQGGQCGITISVNWFGPATPTPEDEMAAELRRQGEWGIYAHPIFSAEGGFPKELSDKIAEKSAQQGYPWSRLPEFTEEEKAFVRGTSDFFGVNHYTAFLVSATERKGPYPVPSLLDDVDTGSWADDSWLKSASAWLTLAPNSIHTALTHLNNLYNKPVFYITENGWSTDESRENSLIDDDRIQYYRASMESLLNCLDDGINLKGYMAWSLMDNFEWMEGYIERFGLYEVDFSDPARTRTPRKAAFVYKHIIKHRVVDYEYEPETMVMTIDEGH
modifications: Monomer given, self-associates to a C2 homodimer. Limits by convention from the 5CG0 entity; paper numbering = entity + 20 (precursor numbering) / Monomer given, self-associates to a C2 homodimer. …
For B1, which “stoichiometry N” value [1] is on record?
The value was 2.

And the Kd [2]?
Its Kd is 135 µM.

What about the Kd [3] of the same binder?
The Kd was 78 µM.

What about the Kd [4] of the same binder?
Its Kd is 9.5 µM.

What about the Kd [5] of the same binder?
The Kd was 9.9 µM.

And the Kd [6]?
The Kd was 7 µM.

What about the Kd [7] of the same binder?
The Kd was 8 µM.

B2: Sfβgly mutant L214A (enzyme)
chain: QQRRFPDDFLFGTATASYQIEGAWDEDGKGENIWDYMVHNTPEVIRDLSNGDIAADSYHNYKRDVEMMRELGLDAYRFSLSWARILPTGMANEVNPAGIAFYNNYIDEMLKYNITPLITLYHWDLPQKLQELGGFANPLISDWFEDYARVVFENFGDRVKMFITFNEPREICFEGYGSATKAPILNATAMGAYACAKNLVTAHAKAYYLYDREFRPVQGGQCGITISVNWFGPATPTPEDEMAAELRRQGEWGIYAHPIFSAEGGFPKELSDKIAEKSAQQGYPWSRLPEFTEEEKAFVRGTSDFFGVNHYTAFLVSATERKGPYPVPSLLDDVDTGSWADDSWLKSASAWLTLAPNSIHTALTHLNNLYNKPVFYITENGWSTDESRENSLIDDDRIQYYRASMESLLNCLDDGINLKGYMAWSLMDNFEWMEGYIERFGLYEVDFSDPARTRTPRKAAFVYKHIIKHRVVDYEYEPETMVMTIDEGH
B2 was tested. Which Kd [8] did it give?
Its Kd is 5400 µM.

B3: Sfβgly mutant D166S (enzyme)
chain: QQRRFPDDFLFGTATASYQIEGAWDEDGKGENIWDYMVHNTPEVIRDLSNGDIAADSYHNYKRDVEMMRELGLDAYRFSLSWARILPTGMANEVNPAGIAFYNNYIDEMLKYNITPLITLYHWDLPQKLQELGGFANPLISDWFESYARVVFENFGDRVKMFITFNEPREICFEGYGSATKAPILNATAMGAYLCAKNLVTAHAKAYYLYDREFRPVQGGQCGITISVNWFGPATPTPEDEMAAELRRQGEWGIYAHPIFSAEGGFPKELSDKIAEKSAQQGYPWSRLPEFTEEEKAFVRGTSDFFGVNHYTAFLVSATERKGPYPVPSLLDDVDTGSWADDSWLKSASAWLTLAPNSIHTALTHLNNLYNKPVFYITENGWSTDESRENSLIDDDRIQYYRASMESLLNCLDDGINLKGYMAWSLMDNFEWMEGYIERFGLYEVDFSDPARTRTPRKAAFVYKHIIKHRVVDYEYEPETMVMTIDEGH
With B3 as the binder, how does the Kd [8] read?
The Kd was 100 µM.

B4: Sfβgly mutant M210A (enzyme)
chain: QQRRFPDDFLFGTATASYQIEGAWDEDGKGENIWDYMVHNTPEVIRDLSNGDIAADSYHNYKRDVEMMRELGLDAYRFSLSWARILPTGMANEVNPAGIAFYNNYIDEMLKYNITPLITLYHWDLPQKLQELGGFANPLISDWFEDYARVVFENFGDRVKMFITFNEPREICFEGYGSATKAPILNATAAGAYLCAKNLVTAHAKAYYLYDREFRPVQGGQCGITISVNWFGPATPTPEDEMAAELRRQGEWGIYAHPIFSAEGGFPKELSDKIAEKSAQQGYPWSRLPEFTEEEKAFVRGTSDFFGVNHYTAFLVSATERKGPYPVPSLLDDVDTGSWADDSWLKSASAWLTLAPNSIHTALTHLNNLYNKPVFYITENGWSTDESRENSLIDDDRIQYYRASMESLLNCLDDGINLKGYMAWSLMDNFEWMEGYIERFGLYEVDFSDPARTRTPRKAAFVYKHIIKHRVVDYEYEPETMVMTIDEGH
With B4 as the binder, how does the Kd [8] read?
The Kd was 3600 µM.

B5: Sfβgly mutant N112S (enzyme)
chain: QQRRFPDDFLFGTATASYQIEGAWDEDGKGENIWDYMVHNTPEVIRDLSNGDIAADSYHNYKRDVEMMRELGLDAYRFSLSWARILPTGMASEVNPAGIAFYNNYIDEMLKYNITPLITLYHWDLPQKLQELGGFANPLISDWFEDYARVVFENFGDRVKMFITFNEPREICFEGYGSATKAPILNATAMGAYLCAKNLVTAHAKAYYLYDREFRPVQGGQCGITISVNWFGPATPTPEDEMAAELRRQGEWGIYAHPIFSAEGGFPKELSDKIAEKSAQQGYPWSRLPEFTEEEKAFVRGTSDFFGVNHYTAFLVSATERKGPYPVPSLLDDVDTGSWADDSWLKSASAWLTLAPNSIHTALTHLNNLYNKPVFYITENGWSTDESRENSLIDDDRIQYYRASMESLLNCLDDGINLKGYMAWSLMDNFEWMEGYIERFGLYEVDFSDPARTRTPRKAAFVYKHIIKHRVVDYEYEPETMVMTIDEGH
With B5 as the binder, how does the Kd [8] read?
The Kd was 1200 µM.

B6: Sfβgly mutant N157S (enzyme)
chain: QQRRFPDDFLFGTATASYQIEGAWDEDGKGENIWDYMVHNTPEVIRDLSNGDIAADSYHNYKRDVEMMRELGLDAYRFSLSWARILPTGMANEVNPAGIAFYNNYIDEMLKYNITPLITLYHWDLPQKLQELGGFASPLISDWFEDYARVVFENFGDRVKMFITFNEPREICFEGYGSATKAPILNATAMGAYLCAKNLVTAHAKAYYLYDREFRPVQGGQCGITISVNWFGPATPTPEDEMAAELRRQGEWGIYAHPIFSAEGGFPKELSDKIAEKSAQQGYPWSRLPEFTEEEKAFVRGTSDFFGVNHYTAFLVSATERKGPYPVPSLLDDVDTGSWADDSWLKSASAWLTLAPNSIHTALTHLNNLYNKPVFYITENGWSTDESRENSLIDDDRIQYYRASMESLLNCLDDGINLKGYMAWSLMDNFEWMEGYIERFGLYEVDFSDPARTRTPRKAAFVYKHIIKHRVVDYEYEPETMVMTIDEGH
With B6 as the binder, how does the Kd [8] read?
The Kd was 28 µM.
